Results reported in paper PMC11068555.

Legend:
Assay in all cases: native gel or EMSA
[1] = target: Khosta-2 S Foldon his (prefusion stabilized spike ectodomain) (sarbecovirus Khosta-2 (clade 3) | bacteriophage T4)
[2] = target: Btky72 S Foldon his (sarbecovirus BtKY72 (clade 3) | bacteriophage T4)
[3] = target: RshSTT200 S Foldon his (prefusion stabilized spike ectodomain) (sarbecovirus RshSTT200 (clade 1b) | bacteriophage T4)
[4] = target: Pang17 S Foldon his (prefusion stabilized spike ectodomain) (sarbecovirus Pang17 (clade 1b) | bacteriophage T4)
[5] = target: SARS-CoV S Foldon his (prefusion stabilized spike ectodomain) (SARS-CoV (clade 1a) | bacteriophage T4)
[6] = target: Rs4081 S Foldon his (prefusion stabilized spike ectodomain) (sarbecovirus Rs4081 (clade 2) | bacteriophage T4)
[7] = target: Rf1 S Foldon his (prefusion stabilized spike ectodomain) (sarbecovirus Rf1 (clade 2) | bacteriophage T4)
[8] = target: PRD-0038 S Foldon his (prefusion stabilized spike ectodomain) (sarbecovirus PRD-0038 (clade 3) | bacteriophage T4)

## Khosta-2 S Foldon his (prefusion stabilized spike ectodomain) (domain or fragment)
[1]
  stoichiometry N: 3

## Btky72 S Foldon his (domain or fragment)
[2]
  stoichiometry N: 3

## RshSTT200 S Foldon his (prefusion stabilized spike ectodomain) (domain or fragment)
[3]
  stoichiometry N: 3

## Pang17 S Foldon his (prefusion stabilized spike ectodomain) (domain or fragment)
[4]
  stoichiometry N: 3

## SARS-CoV S Foldon his (prefusion stabilized spike ectodomain) (domain or fragment)
[5]
  stoichiometry N: 3

## Rs4081 S Foldon his (prefusion stabilized spike ectodomain) (domain or fragment)
[6]
  stoichiometry N: 3

## Rf1 S Foldon his (prefusion stabilized spike ectodomain) (domain or fragment)
[7]
  stoichiometry N: 3

## PRD-0038 S Foldon his (prefusion stabilized spike ectodomain) (domain or fragment)
[8]
  stoichiometry N: 3
